B1: huIL-15Rβ-6His (receptor, human, UniProt P14784 27-239, looked up)
chain: AVNGTSQFTCFYNSRANISCVWSQDGALQDTSCQVHAWPDRRRWNQTCELLPVSQASWACNLILGAPDSQKLTTVDIVTLRVLCREGVRWRVMAIQDFKPFENLRLMAPISLQVVHVETHRCNISWEISQASHYFERHLEFEARTLSPGHTWEEAPLLTLKQKQEWICLETLTPDTQYEFQVRVKPLQGEFTTWSPWSQPLAFRTKPAALGKD
notes: Coated on the ELISA plate; also called IL-15Rβ subunit; huIL-15R/3-6His (so in the source); not shown: 6His tag per the name
B2: P-0176, IL-15i1 (GS insertion after N95) in IL-15/IL-15Rα heterodimeric Fc fusion format (Fc fusion)
chain 1: DKTHTCPPCPAPEAAGAPSVFLFPPKPKDTLMISRTPEVTCVVVDVSHEDPEVKFNWYVDGVEVHNAKTKPREEQYNSTYRVVSVLTVLHQDWLNGKEYKCKVSNKALPAPIEKTISKAKGQPREPQVYTLPPCREEMTKNQVSLSCAVKGFYPSDIAVEWESNGQPENNYKTTPPVLDSDGSFFLVSKLTVDKSRWQQGNVFSCSVMHEALHNHYTQKSLSLSPGEPKSSDKTHTSPPSPNWVNVISDLKKIEDLIQSMHIDATLYTESDVHPSCKVTAMKCFLLELQVISLESGDASIHDTVENLIILANNSLSSNGNVTESGCKECEELEEKNGSIKEFLQSFVHIVQMFINTS
chain 2: DKTHTCPPCPAPEAAGAPSVFLFPPKPKDTLMISRTPEVTCVVVDVSHEDPEVKFNWYVDGVEVHNAKTKPREEQYNSTYRVVSVLTVLHQDWLNGKEYKCKVSNKALPAPIEKTISKAKGQPREPQVCTLPPSREEMTKNQVSLWCLVKGFYPSDIAVEWESNGQPENNYKTTPPVLDSDGSFFLYSKLTVDKSRWQQGNVFSCSVMHEALHNHYTQKSLSLSPGEPKSSDKTHTSPPSPITCPPPMSVEHADIWVKSYSLYSRERYICNSGFKRKAGTSSLTECVLNKATNVAHWTTPSLKCIRDPALVHQRPAPP
B3: P-0177, IL-15i2 (GGSGG insertion after N95) in IL-15/IL-15Rα heterodimeric Fc fusion format (Fc fusion)
chain 1: DKTHTCPPCPAPEAAGAPSVFLFPPKPKDTLMISRTPEVTCVVVDVSHEDPEVKFNWYVDGVEVHNAKTKPREEQYNSTYRVVSVLTVLHQDWLNGKEYKCKVSNKALPAPIEKTISKAKGQPREPQVYTLPPCREEMTKNQVSLSCAVKGFYPSDIAVEWESNGQPENNYKTTPPVLDSDGSFFLVSKLTVDKSRWQQGNVFSCSVMHEALHNHYTQKSLSLSPGEPKSSDKTHTSPPSPNWVNVISDLKKIEDLIQSMHIDATLYTESDVHPSCKVTAMKCFLLELQVISLESGDASIHDTVENLIILANNSLSSNGNVTESGCKECEELEEKNGGSGGIKEFLQSFVHIVQMFINTS
chain 2: B2 chain 2

Assay [1] concerns the target P-0313, C-terminal bivalent IL-15 S58D/IL-15Rα (non-covalent) Fc fusion protein (human, UniProt Q13261 31-107). The assay is described as follows: ELISA. On the technique in general: ELISA stands for enzyme-linked immunosorbent assay.
The target of assay [2] is B1. Kind of assay: ELISA, huIL-15Rβ-6His coated, anti-human IgG Fc-HRP detection. As to the method:
(§1) The binding activity was tested in ELISA assay. Briefly, Nunc Maxisorp (ThermoFisher) plates were coated overnight at 4° C. with huIL-15R/3-6His at 1 μg/well (100 μl/well) in bicarbonate buffer pH 9.4 (ThermoFisher). After washing 3 times with PBS/0.05% Tween20, plates were incubated with SuperBlock (300 μl/well) at room temperature for 2 hrs. to block nonspecific binding. After washing, IL-15 compounds each at 3-fold serial dilutions with blocking buffer were added to the plates (100 μl/well) and incubated at room temperature for 1 hr. After washing, the Fc fusions were detected by 1 hr. incubation at room temperature with a goat anti-human IgG Fc secondary antibody conjugated with horseradish peroxidase (HRP) at 1:5000 dilution in blocking buffer (ThermoFisher) (100 μl/well). After washing, TMB substrate (ThermoFisher) was added (100 ul/well). Plates were sealed and incubated 5-20 min at room temperature in dark. Reaction was stopped by adding 2N sulfuric acid (Ricca Chemical) (50 uL/well) and absorbance was read at 450-590 nm.
(§2) The IL-15 variants have amino acid deletion, insertion or point mutations introduced in the human IL-15 peptide. […]

For assay [3], the target named is B1. Kind of assay: ELISA EC50 against P-0153 (IL-15 wild type). As to the method: as §1, §2

For the molecule B1, the binding result in assay [1] is “binds”.
For orientation: EC50 means the concentration needed to bring the measured effect to its halfway point. Take B2: in assay [2], it took 10.2 nM to reach a half-maximal effect (EC50). The Fold change in assay [3] came out at 16 fold.
For B3 the same measures were 38 nM and 59 fold.

(Values after US20230048046A1 (CUGENE, published 2023).)
